Laboratory results reported in article PMC9942873 (Immunity, 2023).
Residue numbers refer to the chain shown, from its start.

Legend:
Assay in all cases: ELISA
Settings in all cases: both partners purified
Pfs48/45 D3 (K287-A428) = Pfs48/45 D3 (K287-A428) (Plasmodium falciparum 3D7, UniProt Q8I6T1)
Pfs48/45 D1-2 (N28-K289) = Pfs48/45 D1-2 (N28-K289) (Plasmodium falciparum 3D7, UniProt Q8I6T1)
[1] = biological target: Pfs48/45 D2-3 (H184-A428) (Plasmodium falciparum 3D7, UniProt Q8I6T1)
Pfs48/45 D2-3 = Pfs48/45 D2-3 (Plasmodium falciparum 3D7, UniProt Q8I6T1)
Pfs48/45 D3 = Pfs48/45 D3 (Plasmodium falciparum 3D7, UniProt Q8I6T1)
[2] = biological target: recombinant full-length Pfs48/45 (Plasmodium falciparum 3D7, UniProt Q8I6T1)
Pfs48/45 D1-2 = Pfs48/45 D1-2 (Plasmodium falciparum 3D7, UniProt Q8I6T1)
Sequence of Pfs48/45 D1-2 (Q8I6T1 28-289): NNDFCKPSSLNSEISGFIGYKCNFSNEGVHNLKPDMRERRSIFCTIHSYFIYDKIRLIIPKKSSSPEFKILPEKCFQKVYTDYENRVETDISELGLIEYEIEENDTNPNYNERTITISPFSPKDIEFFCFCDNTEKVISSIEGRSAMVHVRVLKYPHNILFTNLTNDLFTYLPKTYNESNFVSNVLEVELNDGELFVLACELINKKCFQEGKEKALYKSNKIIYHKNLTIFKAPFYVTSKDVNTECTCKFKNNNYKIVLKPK

Sequence of Pfs48/45 D3 (K287-A428) (Q8I6T1 whole entry, looked up): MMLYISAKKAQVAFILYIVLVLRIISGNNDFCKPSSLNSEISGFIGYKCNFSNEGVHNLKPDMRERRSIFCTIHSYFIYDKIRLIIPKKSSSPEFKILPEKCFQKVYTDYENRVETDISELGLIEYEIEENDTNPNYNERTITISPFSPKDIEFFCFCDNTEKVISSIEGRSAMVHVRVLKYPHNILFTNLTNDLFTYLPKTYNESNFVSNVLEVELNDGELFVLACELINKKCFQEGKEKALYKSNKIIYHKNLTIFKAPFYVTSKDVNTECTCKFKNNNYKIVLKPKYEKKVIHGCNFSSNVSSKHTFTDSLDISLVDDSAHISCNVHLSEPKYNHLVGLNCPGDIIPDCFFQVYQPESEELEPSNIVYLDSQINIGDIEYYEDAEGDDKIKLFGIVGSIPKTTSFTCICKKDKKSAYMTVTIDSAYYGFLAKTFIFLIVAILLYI
Sequence of Pfs48/45 D1-2 (N28-K289) (Q8I6T1 whole entry, looked up): as above
Sequence of Pfs48/45 D2-3 (H184-A428) (Q8I6T1 whole entry, looked up): as above
Sequence of recombinant full-length Pfs48/45 (Q8I6T1 28-428): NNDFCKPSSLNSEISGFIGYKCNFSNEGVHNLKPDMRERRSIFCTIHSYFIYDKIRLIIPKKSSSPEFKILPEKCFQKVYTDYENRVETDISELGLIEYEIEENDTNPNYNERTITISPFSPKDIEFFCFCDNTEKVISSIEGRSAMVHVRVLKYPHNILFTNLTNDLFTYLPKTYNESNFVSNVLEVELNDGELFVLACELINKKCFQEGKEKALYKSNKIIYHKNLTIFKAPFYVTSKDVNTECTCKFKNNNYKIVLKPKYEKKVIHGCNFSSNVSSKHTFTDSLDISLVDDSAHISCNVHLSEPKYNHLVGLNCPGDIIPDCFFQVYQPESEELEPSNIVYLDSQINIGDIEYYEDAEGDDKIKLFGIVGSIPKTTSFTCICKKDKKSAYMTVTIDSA
Sequence of Pfs48/45 D2-3 (Q8I6T1 184-428): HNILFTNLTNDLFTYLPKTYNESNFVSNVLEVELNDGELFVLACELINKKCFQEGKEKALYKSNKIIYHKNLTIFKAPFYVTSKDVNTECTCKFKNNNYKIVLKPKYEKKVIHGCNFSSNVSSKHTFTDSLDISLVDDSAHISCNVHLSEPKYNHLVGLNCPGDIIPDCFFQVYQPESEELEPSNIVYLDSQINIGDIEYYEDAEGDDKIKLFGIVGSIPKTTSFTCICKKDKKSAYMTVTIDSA
Sequence of Pfs48/45 D3 (Q8I6T1 287-428): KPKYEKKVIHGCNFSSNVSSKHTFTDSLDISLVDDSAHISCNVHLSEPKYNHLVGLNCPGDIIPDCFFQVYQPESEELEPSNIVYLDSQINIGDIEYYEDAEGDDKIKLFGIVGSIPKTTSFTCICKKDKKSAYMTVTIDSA

B1: RUPA-29 (hIgG1) (antibody, V domains shown)
VH: QVHLVESGGGVVQPGRSLRLSCAASGFTFRSYGMHWVRLAPGKGLEWVTAIWYDGSKKHFADSVKGRFTISRDNSKNTLYLQMSSLRVEDTAVYYCARDFAHGAFYPVDWGRGTLVTVSS
VL: SYELTQPPSVSVSPGQTARITCSGDALPKKHAYWYQQKSGQAPVLVIYDDSKRPSGIPERFSGSSSGTMATLSISGAQVEDEAAYYCYSSDTSANYWVFGGGTKLTVL
notes: IgG1; source: 293T cells, purified (Protein A), or produced as recombinant human IgG1 (GenScript)
B1: binds (Pfs48/45 D3 (K287-A428)).

B2: RUPA-58 (hIgG1) (antibody, V domains shown)
VH: QVQLVQSGPEAKKPGASVKVSCQASGYPFSGYYMHWLRQAPGQGLEWMGWMNPNSGGTKYAQRFQGRVTMTRDTSISTAHMELRGLRSDDTAVYYCARDYCTGSSCYRTDYDYWGQGTLVTVSS
VL: DIQMTQSPSSLSASVGDRVTITCRASQIISTYLNWYQHKPGKAPKLLIKSASTLQSGVPSRFSGSGSGTDFTLTITSLQPEDFATFYCQQSYRDPITFGQGTRLEIK
notes: as for B1
B2: binds (Pfs48/45 D1-2 (N28-K289)).

B3: RUPA-154 (hIgG1) (antibody, V domains shown)
VH: QVQLVQSGAEVRKPGASVKVSCRTSGYTFTDYYMHWVRQAPGEGLEWMGSINPKSGGTSYAERFQGRVTMTMETSVSTAYLDLSSLRSDDTAVYYCARLLYSRAVYYYGMDVWGQGTTVTVSS
VL: SYELTQPPSVSVAPGKTARITCGGKDLGSKSVHWYQQKPGQAPVLVIYYDNIRPSGIPERFSGSNSGNTATLTISRVEAGDEADYYCQVWDSSSDHYVFGRGAKVTVL
notes: as for B1
B3: binds [1]; binds (Pfs48/45 D3 (K287-A428)); binds (Pfs48/45 D1-2 (N28-K289)).

B4: RUPA-54 (hIgG1) (antibody, V domains shown)
VH: QVQLVESGGGVVQPGRSLRLSCTASGFTFRSYGIHWVRQAPGKGLQWVAFISYDGRNKYYADSVKGRFTISRDNSKNTLYLQMSGLRADDTAVYYCAKDSDNDCTATSCYTVSWGQGTLVTVSS
VL: SYELTQPPSVSVSPGQTARITCSGDALPKKYAYWYQQKSGQAPVLVIYEDKKRPSGIPERFSGSSSGTMATLTISGAQVEDEADYYCYSTDSRTDHGGIFGGGTKLTVL
notes: as for B1
B4: binds (Pfs48/45 D3 (K287-A428)).

B5: RUPA-100 (hIgG1) (antibody, V domains shown)
VH: QVQLVESGGGVVQPGRSLRLSCAASGFSFSHYGMHWVRQAPGKGLEWVAVISYDGNYKYYGDSVKGRFTISRDNFKNTLYLQMNSLRPEDTAVYYCAKGKAHSCVSTSCYTDFWGQGTLVTVPS
VL: B4 VL with K51S, A83G, R93S, T94Y, D95N, G97R, I99V
notes: as for B1
B5: binds (Pfs48/45 D3 (K287-A428)).

B6: RUPA-160 (antibody, V domains shown)
VH: QVQLVQSGAEVKKPGASVKASCKASGYTFDNFDIIWARQATGQGLEWMGWMNPNTGKKGYAQNLKDRVTMTRDSSISTAYLELSSLRSEDTAVYYCVRAVGSYYGSGGWFDPWGQGTLVTVSS
VL: QSVLTQPPSASGTPGQRVTIACSGSSSNIGGNNVKWYQQLPGTAPKLVIYNNDERPPGVPDRVSGSKSGTSASLAISGVQSEDEADYYCATWDDSMKREVFGGGTKLTVL
notes: human IgG1; source: recombinant human IgG1, 293T (Protein A purified) or GenScript
B6: binds (Pfs48/45 D2-3); no binding (tested: 10 ug/ml) (Pfs48/45 D3); binds [2]. B6: binds (Pfs48/45 D1-2).

B7: RUPA-160 (hIgG1) (antibody, V domains shown)
VH: B6 VH
VL: B6 VL
notes: as for B1
B7: binds [1]; binds (Pfs48/45 D1-2 (N28-K289)).

B8: RUPA-25 (hIgG1) (antibody, V domains shown)
VH: QVQLVQSGAEVKKPGASVKVSCTASGYNFLTHDISWVRQATGQGLEWMGWMNPNTGKKGYVQKFQGRVTMDRDMSKSTAYMELRSLTSEDTAVYYCVRGVGSYYGSGGWFDPWGQGTLVTVSS
VL: QPVLTQPPSASETPGQKVTISCSGSSSNIGSDTVSWYVQLPGTAPKLLIYNDNQRPSGVPDRFSGSKSGTSASLAISGLQSEDEADYYCATWDASLKRRVFGGGTTLTVL
notes: as for B1
B8: binds [1]; binds (Pfs48/45 D1-2 (N28-K289)).

B9: RUPA-50 (hIgG1) (antibody, V domains shown)
VH: QVHLVESGGGVVQPGRSLRLSCAASGFTFRSYGMHWVRRVPGKGLEWVATISYDETFKDYPDSVKGRFTISRDNSKNTLFLQMNSLRPADTAVYYCAKDRAHSMHYFEYWGRGTLVTVSS
VL: SYELTQPPSVSVSPGQTARLTCSGDALPKKFAYWYQLKSGQAPVLVIYEDSKRPSGIPERFSGSSSGTTATLTISGAQVEDEADYYCYSRDGSGDQKNIFGGGTKLTVL
notes: as for B1
B9: binds (Pfs48/45 D3 (K287-A428)).
